Source: PMC4058522 (2014)
Square brackets hold non-standard residues; d marks the D form. Ends that are not written are not given here. pS = N[C@@H](COP(=O)(O)O)C(=O)O

Target: mouse Pih1 PIH domain Lys 153 charge reversal mutant (mouse, UniProt Q9CQJ2 1-200, Charge reversal of a conserved residue Lys 153)
Assay: ITC

Sequence of mouse Pih1 PIH domain Lys 153 charge reversal mutant (Q9CQJ2 other isoform, or with tags, fused parts or gaps Charge reversal of a conserved residue Lys 153 | mutant): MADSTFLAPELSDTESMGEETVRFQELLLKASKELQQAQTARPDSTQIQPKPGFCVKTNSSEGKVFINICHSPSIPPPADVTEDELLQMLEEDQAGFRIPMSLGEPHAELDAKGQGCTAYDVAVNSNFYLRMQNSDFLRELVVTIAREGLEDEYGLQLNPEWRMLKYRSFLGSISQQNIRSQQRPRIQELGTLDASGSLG

Kd: 220 nM
Binder: QGSD[pS]ELD[pS]DDEF [mouse Tel2 484-496 peptide, bis-phosphorylated pSer 488 and pSer 492 (QGSDpSELDpSDDEF)]
